Test results: IntAct's records for PubMed 19478074

B1: Transforming growth factor-beta-induced protein ig-h3 (Homo sapiens), Q15582 (parent)
chain: MALFVRLLALALALALGPAATLAGPAKSPYQLVLQHSRLRGRQHGPNVCAVQKVIGTNRKYFTNCKQWYQRKICGKSTVISYECCPGYEKVPGEKGCPAALPLSNLYETLGVVGSTTTQLYTDRTEKLRPEMEGPGSFTIFAPSNEAWASLPAEVLDSLVSNVNIELLNALRYHMVGRRVLTDELKHGMTLTSMYQNSNIQIHHYPNGIVTVNCARLLKADHHATNGVVHLIDKVISTITNNIQQIIEIEDTFETLRAAVAASGLNTMLEGNGQYTLLAPTNEAFEKIPSETLNRILGDPEALRDLLNNHILKSAMCAEAIVAGLSVETLEGTTLEVGCSGDMLTINGKAIISNKDILATNGVIHYIDELLIPDSAKTLFELAAESDVSTAIDLFRQAGLGNHLSGSERLTLLAPLNSVFKDGTPPIDAHTRNLLRNHIIKDQLASKYLYHGQTLETLGGKKLRVFVYRNSLCIENSCIAAHDKRGRYGTLFTMDRVLTPPMGTVMDVLKGDNRFSMLVAAIQSAGLTETLNREGVYTVFAPTNEAFRALPPRERSRLLGDAKELANILKYHIGDEILVSGGIGALVRLKSLQGDKLEVSLKNNVVSVNKEPVAEPDIMATNGVVHVITNVLQPPANRPQERGDELADSALEIFKQASAFSRASQRSVRLAPVYQKLLERMKH
partner: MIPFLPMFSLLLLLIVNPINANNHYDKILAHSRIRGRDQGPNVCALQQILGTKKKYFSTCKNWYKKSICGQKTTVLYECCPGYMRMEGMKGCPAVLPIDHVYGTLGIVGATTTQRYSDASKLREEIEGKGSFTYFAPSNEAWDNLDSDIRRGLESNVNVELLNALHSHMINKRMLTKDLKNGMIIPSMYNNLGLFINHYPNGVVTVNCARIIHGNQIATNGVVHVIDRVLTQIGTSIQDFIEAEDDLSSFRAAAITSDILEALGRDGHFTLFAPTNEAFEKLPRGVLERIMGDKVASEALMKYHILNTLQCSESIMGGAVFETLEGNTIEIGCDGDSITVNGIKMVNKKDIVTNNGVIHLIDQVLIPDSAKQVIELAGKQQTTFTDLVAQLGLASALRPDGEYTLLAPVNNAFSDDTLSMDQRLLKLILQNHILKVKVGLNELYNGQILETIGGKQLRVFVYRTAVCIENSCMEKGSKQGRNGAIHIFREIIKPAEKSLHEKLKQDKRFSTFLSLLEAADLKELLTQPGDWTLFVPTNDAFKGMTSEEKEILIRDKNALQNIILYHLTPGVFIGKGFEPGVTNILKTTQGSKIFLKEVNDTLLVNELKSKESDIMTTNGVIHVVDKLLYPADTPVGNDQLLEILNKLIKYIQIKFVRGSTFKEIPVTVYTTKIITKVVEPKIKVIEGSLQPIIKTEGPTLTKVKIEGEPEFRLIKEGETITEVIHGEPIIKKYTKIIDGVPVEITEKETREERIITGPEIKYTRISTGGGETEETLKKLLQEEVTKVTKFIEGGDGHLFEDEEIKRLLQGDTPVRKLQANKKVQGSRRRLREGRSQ

Variants of: B1
Conditions: with postn_human POSTN

Row | effect of a mutation on the interaction | Variant
1 | disrupting interaction strength | R124H
